From PMC11310373, “Development of a microbial dewaxing agent using three spore forming bacteria” (Bioresources and Bioprocessing, 2024)

Key:
purified protein = substrate: Cc1cc2nc3c(=O)[nH]c(=O)nc-3n(C[C@H](O)[C@H](O)[C@H](O)COP(=O)(O)O)c2cc1C; test: purified protein; format: biochemical, Geobacillus thermodenitrificans; conditions: FMN added to octadecane/NADPH mixture, FMNH2 consumption followed at A455, pH 8.0, 60 °C, varied: cofactor
[1] = substrate: CCCCCCCCCCCCCCCCCC; test: NADPH consumption, Lineweaver-Burk; format: biochemical, Geobacillus thermodenitrificans; conditions: 10 mM NADPH, 0.015% Triton X-100, 50 mM Tris-HCl pH 8.0, 60 °C
From the text: NADPH consumption, Lineweaver-Burk on LadA (alkane monooxygenase)

Protein	Km (purified protein)	Km [1]	kcat [1]	kcat/Km [1]
LadA (alkane monooxygenase) (Geobacillus thermodenitrificans NG80-2) (protein) MTKKIHINAFEMNCVGHIAHGLWRHPENQRHRYTDLNYWTELAQLLEKGKFDALFLADVVGIYDVYRQSRDTAVREAVQIPVNDPLMLISAMAYVTKHLAFAVTFSTTYEHPYGHARRMSTLDHLTKGRIAWNVVTSHLPSADKNFGIKKILEHDERYDLADEYLEVCYKLWEGSWEDNAVIRDIENNIYTDPSKVHEINHSGKYFEVPGPHLCEPSPQRTPVIYQAGMSERGREFAAKHAECVFLGGKDVETLKFFVDDIRKRAKKYGRNPDHIKMFAGICVIVGKTHDEAMEKLNSFQKYWSLEGHLAHYGGGTGYDLSKYSSNDYIGSISVGEIINNMSKLDGKWFKLSVGTPKKVADEMQYLVEEAGIDGFNLVQYVSPGTFVDFIELVVPELQKRGLYRVDYEEGTYREKLFGKGNYRLPDDHIAARYRNISSNV	3.3 ± 0.2 µM	10360 ± 1600 µM	0.0297 ± 0.0033 s⁻¹	2.83 M⁻¹ s⁻¹
LadA (alkane monooxygenase) (Geobacillus thermodenitrificans NG80-2; F10L) (protein) MTKKIHINALEMNCVGHIAHGLWRHPENQRHRYTDLNYWTELAQLLEKGKFDALFLADVVGIYDVYRQSRDTAVREAVQIPVNDPLMLISAMAYVTKHLAFAVTFSTTYEHPYGHARRMSTLDHLTKGRIAWNVVTSHLPSADKNFGIKKILEHDERYDLADEYLEVCYKLWEGSWEDNAVIRDIENNIYTDPSKVHEINHSGKYFEVPGPHLCEPSPQRTPVIYQAGMSERGREFAAKHAECVFLGGKDVETLKFFVDDIRKRAKKYGRNPDHIKMFAGICVIVGKTHDEAMEKLNSFQKYWSLEGHLAHYGGGTGYDLSKYSSNDYIGSISVGEIINNMSKLDGKWFKLSVGTPKKVADEMQYLVEEAGIDGFNLVQYVSPGTFVDFIELVVPELQKRGLYRVDYEEGTYREKLFGKGNYRLPDDHIAARYRNISSNV	3.1 ± 0.3 µM	6980 ± 500 µM	0.036 ± 0.005 s⁻¹	5.17 M⁻¹ s⁻¹
LadA (alkane monooxygenase) (Geobacillus thermodenitrificans NG80-2; F10L/N133R) (protein) MTKKIHINALEMNCVGHIAHGLWRHPENQRHRYTDLNYWTELAQLLEKGKFDALFLADVVGIYDVYRQSRDTAVREAVQIPVNDPLMLISAMAYVTKHLAFAVTFSTTYEHPYGHARRMSTLDHLTKGRIAWRVVTSHLPSADKNFGIKKILEHDERYDLADEYLEVCYKLWEGSWEDNAVIRDIENNIYTDPSKVHEINHSGKYFEVPGPHLCEPSPQRTPVIYQAGMSERGREFAAKHAECVFLGGKDVETLKFFVDDIRKRAKKYGRNPDHIKMFAGICVIVGKTHDEAMEKLNSFQKYWSLEGHLAHYGGGTGYDLSKYSSNDYIGSISVGEIINNMSKLDGKWFKLSVGTPKKVADEMQYLVEEAGIDGFNLVQYVSPGTFVDFIELVVPELQKRGLYRVDYEEGTYREKLFGKGNYRLPDDHIAARYRNISSNV	3.9 ± 0.3 µM	2040 ± 200 µM	0.0737 ± 0.01 s⁻¹	36.2 M⁻¹ s⁻¹
